Results taken from PMC2657470 (Biochemical and biophysical research communications, 2009).
Read-outs that look alike come from different tables or passages of the source.

Legend:
Phos15739 [1] = target: T1, Phos15739 (Drosophila melanogaster, UniProt Q9VYT0); type: biochemical, D. melanogaster; settings: for substrate quality for Phos15739 (in words): isoprenoid mono- and pyrophosphate substrates
Phos15739D28A = test: Enzymatic activity of variant Phos15739D28A with p-NPP and FPP; type: biochemical, D. melanogaster; settings: same reaction conditions as positive control Phos15739; data not shown
[2] = test system: N-terminal domain of hsEH; settings: FPP as substrate of N-terminal domain of hsEH; ref [8]; cited from earlier work
Phos15739 [3] = target: T1, Phos15739; test: In vitro inhibition of Phos15739, p-NPP as substrate; settings: for inhibitor quality for Phos15739 (in words): p-NPP as substrate
Phos2680 = Phos2680 (Drosophila melanogaster, UniProt Q9W4W5); test: In vitro inhibition of Phos2680, p-NPP as substrate
[4] = target: hsEH N-terminal phosphatase; settings: cited from earlier work
[5] = substrate: CC(C)=CCC/C(C)=C/COP(=O)(O)O; test: purified protein, by the assay type; type: biochemical, D. melanogaster; settings: other: substrate of Phos15739; IPP, GPP, FPP values are apparent kinetics
[6] = substrate: C=C(C)CCO[P@@](=O)(O)OP(=O)(O)O; test: purified protein, by the assay type; type: biochemical, D. melanogaster; settings: other: substrate of Phos15739; IPP, GPP, FPP values are apparent kinetics
[7] = substrate: CC(C)=CCC/C(C)=C/CC/C(C)=C/COP(=O)(O)O; test: purified protein, by the assay type; type: biochemical, D. melanogaster; settings: other: substrate of Phos15739; IPP, GPP, FPP values are apparent kinetics
[8] = substrate: O=[N+]([O-])c1ccc(OP(=O)(O)O)cc1; test: p-NPP phosphatase activity of Phos15739; type: biochemical, D. melanogaster; settings: other: p-NPP as substrate of Phos15739, pH 6.0, 2 mM Mg2+
[9] = substrate: CC(C)=CCC/C(C)=C/CC/C(C)=C/CO[P@@](=O)(O)OP(=O)(O)O; test: purified protein, by the assay type; settings: other: substrate of Phos15739; IPP, GPP, FPP values are apparent kinetics
[10] = substrate: C=C(C)CCOP(=O)(O)O; test: purified protein, by the assay type
[11] = substrate: O=[N+]([O-])c1ccc(OP(=O)(O)O)cc1; test: p-NPP phosphatase activity of Phos2680; type: biochemical, D. melanogaster; settings: other: p-NPP as substrate of Phos2680, pH 6.0, 2 mM Mg2+
[12] = substrate of Phos15739, IPP, GPP, FPP values are apparent kinetics
[13] = other: substrate of Phos15739, IPP, GPP, FPP values are apparent kinetics

Molecule: C=C(C)CCOP(=O)(O)OP(=O)(O)O [IPP]
- substrate quality for Phos15739 (in words) (Phos15739 [1]): weak substrates

Molecule: CC(C)=CCC/C(C)=C/CC/C(C)=C/COP(=O)(O)OP(=O)(O)O [FPP, farnesyl pyrophosphate]
- enzymatic activity of Phos15739D28A with substrate (Phos15739D28A): No activity was detected
- turnover number [2]: 0.25 ± 0.07 s⁻¹

Molecule: CC(C)=CCC/C(C)=C/CC/C(C)=C/CSCC(=O)O [S-Farnesyl-thioacetic acid]
- IC50 (Phos15739 [3]): > 100 µM
- inhibitor quality for Phos15739 (in words) (Phos15739 [3]): poor inhibitors
- IC50 (Phos2680): 5.1 ± 1.4 µM

Molecule: CC(C)=CCC/C(C)=C/CC/C(C)=C/CC/C(C)=C/COP(=O)(O)O [GGMP]
- substrate quality for Phos15739 (in words) (Phos15739 [1]): not good substrates

Molecule: CC(=O)N[C@@H](CSC/C=C(\C)CC/C=C(\C)CC/C=C(\C)CCC=C(C)C)C(=O)O [N-acetyl-S-geranylgeranyl-L-cysteine]
- IC50 (Phos15739 [3]): 4.4 ± 2 µM
- IC50 (Phos2680): 14 ± 1.9 µM

Molecule: CC(=O)N[C@@H](CSC/C=C(\C)CC/C=C(\C)CCC=C(C)C)C(=O)O [N-acetyl-S-farnesyl-L-cysteine]
- IC50 (Phos15739 [3]): 28 ± 6.8 µM
- IC50 ([4]; ref [8]): 0.84 µM
- IC50 (Phos2680): > 100 µM

Molecule: CC(=O)N[C@@H](CSC/C=C(\C)CCC=C(C)C)C(=O)O [N-acetyl-S-geranyl-L-cysteine]
- IC50 (Phos15739 [3]): 6.3 ± 1.7 µM
- IC50 (Phos2680): > 100 µM

Molecule: C[C@H](CCC(=O)NCCS(=O)(=O)O)[C@H]1CC[C@H]2[C@@H]3CC[C@@H]4C[C@H](OS(=O)(=O)O)CC[C@]4(C)[C@H]3CC[C@]12C [Taurolithocholic acid 3-sulfate, taurolithocholic acid 3-sulfate]
- IC50 (Phos15739 [3]): > 100 µM
- inhibitor quality for Phos15739 (in words) (Phos15739 [3]): poor inhibitors
- IC50 ([4]; ref [12]): 5 µM
- IC50 (Phos2680): > 100 µM

Molecule: O=[N+]([O-])c1ccc(OP(=O)(O)O)cc1 [p-NPP, para-nitrophenyl phosphate]
- enzymatic activity of Phos15739D28A with substrate (Phos15739D28A): No activity was detected

Molecule: CC(C)=CCC/C(C)=C/COP(=O)(O)OP(=O)(O)O [GPP]
- substrate quality for Phos15739 (in words) (Phos15739 [1]): weak substrates
- Kcat (s^−1±S.E.) (Phos15739 [1]; [12]): 0.78 ± 0.09 s⁻¹
- Vmax (μmol.min^−1mg^−1±S.E.) (Phos15739 [1]; [12]): 1.4 ± 1.5 µmol/min/mg

Molecule: CC(C)=CCC/C(C)=C/CC/C(C)=C/CC/C(C)=C/COP(=O)(O)OP(=O)(O)O [GGPP, Geranylgeranyl pyrophosphate]
- substrate quality for Phos15739 (in words) (Phos15739 [1]): not good substrates

B1: Phos15739 (Drosophila melanogaster) (protein)
chain: MAKPQHILQLSQEQRSSVVDSFDRVVSDIDGVLWTFEQSIPRAADGYAALEQMGKHLTFLTNNSVRTSEQCVKLFAKIGMQVHPEQIWHPAKSIVSYLQSIKFEGLIYIIASQSFKTVLREAGFQLLDGPNEFIEESYASLAEHIFGKEPVRAVIIDVDFNLTSPKILRAHLYLRHPECMLIEGATDRLLPVAKEVNIVGPGAFASILVEASGKQPITLGKPGRELGDLLVEHYQIVQPSRVLMIGDMLAQDVSFGRQCGFQTLLVLSGGCSKEELLAETDPQRIPDYYADSVADVAQMLGEAPKSRV
- Km [5]: 81 ± 6.7 µM
- Vmax [5]: 250 ± 9.3 µmol/min/mg
- kcat [5]: 140 ± 5.3 s⁻¹
- kcat/Km [5]: 1.8e+06 M⁻¹ s⁻¹
- Km [6]: 430 ± 150 µM
- Vmax [6]: 2.1 ± 0.39 µmol/min/mg
- kcat [6]: 1.2 ± 0.22 s⁻¹
- kcat/Km [6]: 2700 M⁻¹ s⁻¹
- Km [7]: 160 ± 20 µM
- Vmax [7]: 85 ± 4.2 µmol/min/mg
- kcat [7]: 49 ± 2.4 s⁻¹
- kcat/Km [7]: 310000 M⁻¹ s⁻¹
- Km [8]: 240 µM
- Vmax [8]: 6.1 µmol/min/mg
- Km [9]: 48 ± 13 µM
- Vmax [9]: 18 ± 1.8 µmol/min/mg
- kcat [9]: 10 ± 1.04 s⁻¹
- kcat/Km [9]: 2.1 X 10^5 M^−1 s^−1
- Km [10, 13]: 84 ± 27 µM
- Vmax [10, 13]: 18 ± 2.7 µmol/min/mg
- kcat [10, 13]: 10 ± 1.5 s⁻¹
- kcat/Km [10, 13]: 120000 M⁻¹ s⁻¹

B2: Phos2680 (Drosophila melanogaster) (protein)
chain: MSPPRHILKLSLEEQRQFIDSFDLVISDCDGVVWLLVGWIPNTGAAVNALKAAGKQIKFVSNNSFRSEEDYMEKFRHIGAKNVQEDDIVHPVKTIVRYLKKHKPGERVYSLMSLEANETLRKHNIEFESLQVKEHLTAASLVDHLAIEKPVGAVLFDIHLDLSYVELAKAIRHLQENDDCQLIAGGSDVIMPLAENLNVAGFFDFLEHVKRYTQREATFLGKPSPILGEMFGEMFEIRDCKRCIFIGDTLVQDVQFGKACGFQSLLVLSGCLTKEDMLNAPVEAQPDYYADSLADFTQLLENIQK
- Km [11]: 640 µM
- Vmax [11]: 36 µmol/min/mg
- Km ([10]; other: substrate of Phos2680): 35 µM
- Vmax ([10]; other: substrate of Phos2680): 59 µmol/min/mg
